Experimental data: US20110307974A1

T1: APC10 (AT2G18290) fused at its N-terminus with the traditional TAP tag or with the GS tag (Arabidopsis thaliana) (UniProt Q9ZPW2)
T1 sequence: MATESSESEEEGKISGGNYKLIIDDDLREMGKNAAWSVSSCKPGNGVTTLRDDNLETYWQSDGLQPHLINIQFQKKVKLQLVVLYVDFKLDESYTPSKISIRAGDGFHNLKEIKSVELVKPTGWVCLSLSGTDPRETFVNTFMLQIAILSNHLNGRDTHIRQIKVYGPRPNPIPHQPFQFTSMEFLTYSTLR

B1: SAMBA (AT1G32310) (protein)
chain: MNGASPAHSLVSTTAVAGGGGSSGAAAGLDDFHFPPDIPSMQERKDEAMRVLKADLMTELDKEVKSLEEDSWMFEGPRSRIHLISRRGNFLKKGGEVKLW

The molecules below were run against T1, APC10 (AT2G18290) fused at its N-terminus with the traditional TAP tag or with the GS tag (Arabidopsis thaliana) (assay: TAP purification with tagged APC10 as bait from Arabidopsis cell suspension culture, MALDI-TOF/TOF MS identification).

| Molecule | Found/6 exp (of 6 experiments) |
| --- | --- |
| CDC27b (AT2G20000) (from UniProt Q8LGU6 1-744) | 6 |
| APC1 (AT5G05560) (from UniProt Q9FFF9 1-1678) | 6 |
| APC8 (AT3G48150) (from UniProt Q9STS3 1-579) | 6 |
| CDC27a (AT3G16320) (from UniProt Q06AN9 1-717) | 4 |
| CDKA; 1 (AT3G48750) (from UniProt P24100 1-294) (enzyme) | 1 |
| RNase L inhibitor protein, putative (AT4G19210) (from UniProt Q8LPJ4 1-605) | 2 |
| expressed protein (AT4G25550) (from UniProt Q8GXS3 1-200) | 2 |
| CCS52B (AT5G13840) (from UniProt Q8LPL5 1-481) | 1 |
| CDC16 (AT1G78770) (from UniProt B3DNN5 1-543) | 6 |
| UVI4 (AT2G42260) (from UniProt O48533 1-259) | 3 |
| APC2 (AT2G04660) (from UniProt Q8H1U5 1-865) | 3 |
| phosphoprotein-related (ELF8) (AT2G06210) (from UniProt B5X0I6 2-1091) | 1 |
| APC7 (AT2G39090) (from UniProt Q8VY89 1-558) | 6 |
| APC4 (AT4G21530) (from UniProt O65418 1-777) | 6 |
| UVI4-like (AT3G57860) (from UniProt Q9M2R1 1-243) | 2 |
| APC5 (AT1G06590) (from UniProt Q8H1U4 1-916) | 6 |
| eukaryotic translation initiation factor 3 subunit 8 (AT3G56150) (from UniProt O49160 1-900) | 1 |
| B1 | 4 |
